# In patent US11155612B2, “vNAR antibody which binds VEGF for use in dogs or cats” (CENTRO DE INVESTIGACIÓN CIENTÍFICA Y DE EDUCACIÓN SUPERIOR …, priority 2017, dated 2021):
# What was measured:
# [1] = test system: Murine Lewis lung cancer cell lines; assay: VEGF inhibition in vivo, ND-GFP nude mice with Lewis lung cancer footpad implant; settings: for capillary growth around the tumor (vessel density): 27 μg vNAR i.p. twice per week, 6 doses over 18 days, vs untreated controls; for Normalized tumor weight / reduction of the tumor (weight), statistical significance: after day 18, 27 μg vNAR i.p., 6 doses; for Normalized tumor weight: n=8, PBS = 1.0 (100%); for reduction of the tumor (weight), statistical significance: vs PBS
# Protocol: In vivo tests were conducted at AntiCancer, Inc. (San Diego, Calif., USA) in accordance with its protocols for handling animals approved under Assurance #A3873-1, and also approved by the Bioethics Committee of the Center for Scientific Research and Higher Education of Ensenada, Baja California (CICESE), approval number 2014/03. In order to minimize the suffering of the animals, anesthesia and analgesics were used for all surgical experiments. Animals were anesthetized by subcutaneous injection of a solution of 0.02 ml of ketamine 20 mg/kg, 15.1 mg/kg xylazine, and 0.48 mg/kg of acepromazine maleate. Animals responses during surgery were monitored to ensure adequate depth of anesthesia. The animals were observed daily and humanely sacrificed through CO2 inhalation when they met the following endpoint criteria: severe tumor burden (more than 20 mm in diameter), prostration, significant body weight loss, difficulty breathing, rotational motion, and body temperature drop. Animals were housed in a barrier facility, on a high-efficiency particulate arrestance-filtered rack under standard conditions of light/dark cycles of 12 hours. Animals were fed an autoclaved laboratory rodent diet. Eight nestin-driven GFP (ND-GFP) mice were used [Amoh Y, Yang M, Li L, Reynoso J, Bouvet M, Moossa A R, Katsuoka K, Hoffman R M. Nestin-driven green fluorescent protein transgenic nude mouse for imaging human tumor angiogenesis. Cancer Res. 2005; 65: 5352-5357], individuals from 6 to 10 weeks old were used per group. ND-GFP mice expressed GFP in nascent blood vessels. Murine Lewis lung cancer cell lines, stably transfected with red fluorescent protein (RFP) were used for implantation of foot cancer cells in the plantar pad (5×10^5 cells in 25 μl). The treatment began 3 days after implantation of cancer cells. All vNARs were administered intraperitoneally (i.p.) twice per week for a total of 6 doses over 18 days; each administration contained 27 μg of VNAR in 180 μl of PBS. After day 18, the implanted footpad of the mice in each group was imaged for GFP-expressing blood vessels. The vessel density was calculated as the total length of the blood vessels divided by the observed area. Each individual tumor was collected and, the weighed (g).
# [2] = test system: human umbilical vein endothelial cells (HUVEC) expressing GFP and normal human dermal fibroblasts (NHDF); assay: Angiogenesis assay (vascular tube formation, HUVEC/NHDF co-culture); format: cell-based; settings: VEGF 4 ng/ml; vNAR at eight concentrations
# Protocol: In the vascular tube formation assay, a co-culture system of human umbilical vein endothelial cells (HUVEC) expressing GFP and normal human dermal fibroblasts (NHDF) was used. For cell seeding on day 0, one cryogenic vial of NHDF cells was thawed and resuspended in 12 ml of complete seeding medium. Then, 100 μl of this solution was added per well of a 96-well plate. The cells were incubated at room temperature for 1 hour. Then, 1 cryogenic vial of HUVECs was thawed and resuspended in 12 ml of complete seeding medium. HUVEC (100 μL per well) were seeded into the same plate as NHDFs. The cells were incubated at room temperature for another hour. The plate was then examined in an IncuCyte ZOOM and scanned using the “FOIL” scan type. After 24 hours, the culture medium was replaced with 150 μl of growth medium.
# Forty-eight hours after seeding, the cells were treated with VEGF at 4 ng/ml and the test compounds at eight concentrations.
# Serial dilutions of the compounds were prepared using assay media containing VEGF up to the final concentrations in FIG. 3. Then, 150 μl of medium containing the vNARs were added. In untreated wells, media without VEGF were added. For wells without compound, media with VEGF was added. […]
# The formation of vessel tubes by fluorescently-labeled HUVECs was measured using live-cell imaging, and the effects of the vNARs on this process were assessed.
# VEGF165 = molecular target: T1, VEGF165 (Homo sapiens, UniProt P15692); assay: ELISA test recognition; format: binding; settings: ELISA plates coated with VEGF165; compared with parental V13
# T1 sequence (P15692 27-191 isoform P15692-4): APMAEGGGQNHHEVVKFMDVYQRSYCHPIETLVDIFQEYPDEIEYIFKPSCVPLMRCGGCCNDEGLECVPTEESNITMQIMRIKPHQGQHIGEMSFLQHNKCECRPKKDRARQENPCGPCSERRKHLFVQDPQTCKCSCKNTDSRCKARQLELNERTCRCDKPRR
# Protocol: Decreasing concentrations of each vNAR were added to measure the recognition of VEGF compared to V13, which is the parental antibody.
# ELISA plates were coated with the same amount of VEGF165; then, the wells were blocked with 3% BSA, several dilutions of clones P98Y and R97A, and the parental sequence (V13) were added.
Molecule,capillary growth around the tumor (vessel density) [1],Normalized tumor weight [1],"reduction of the tumor (weight), statistical significance [1]","reduction of the tumor (weight), statistical significance ([1]; listed as SEQ ID NO:1)",inhibition of angiogenesis (tube length and network branching) [2],recognition of VEGF (VEGF165)
"P98Y: anti-VEGF vNAR protein, P98Y mutation in CDR3 of parental V13; corresponds to SEQ ID NO:1 (protein, Artificial sequence against VEGF, with single mutation in the CDR3 region from a parenteral vNAR sequence.) ASLDQTPRTATRETGESLSINCVLTDTSHILFGTKWLWNNPGSTDWESITIGGRYAESVNNQAKSFSLQIKDLTVEDSGTYYCKAQTIGRRKNLLPRYLVNGIAAMGYSSSDYDGAGTVLTVN",reduced capillary growth around the tumor,0.71,statistically significant reduction of the tumor,allows reducing the size of the tumor masses,especially potent inhibitors of angiogenesis,greater recognition of VEGF than the parental
"R97A: anti-VEGF vNAR mutant, R97A mutation in CDR3 of parental V13 (protein) ASLDQTPRTATRETGESLSINCVLTDTSHILFGTKWLWNNPGSTDWESITIGGRYAESVNNQAKSFSLQIKDLTVEDSGTYYCKAQTIGRRKNLLPAPLVNGIAAMGYSSSDYDGAGTVLTVN",comparable with parental v13 VNAR,0.76,,,,
